Among the data in PMC12790879 are percent decrease of the DELLA-SPL3 interaction (m1 with m2) when expressed as third protein and percent decrease of the DELLA-SPL4 interaction (m1 with m3) when expressed as third protein values, retold here.

In this assay the target is RHT1‐GRAS (truncated DELLA protein containing only the C‐terminal GRAS domain) (wheat (Triticum turgidum ssp. durum, cultivar Kronos)). Kind of assay: two-hybrid; yeast-three-hybrid (Y3H), quantitative alpha-galactosidase activity; DELLA-GRAS as AD, SPL3 or SPL4 as BD, VRN1 or FUL2 expressed as third protein; Method S10.

Regarding “FUL2 expressed as the third protein in the yeast‐three‐hybrid system (natural protein)”, the percent decrease of the DELLA-SPL3 interaction (m1 with m2) when expressed as third protein is 60% and the percent decrease of the DELLA-SPL4 interaction (m1 with m3) when expressed as third protein came out at 55%.
For “VRN1 expressed as the third protein in the yeast‐three‐hybrid system (natural protein)”, the percent decrease of the DELLA-SPL3 interaction (m1 with m2) when expressed as third protein was found to be 48% and the percent decrease of the DELLA-SPL4 interaction (m1 with m3) when expressed as third protein was 36%.
